Consider 3 molecules from patent publication US20110243962A1 (GENEURO, published 2011).

T1: MSRV ENV surface domain fragment (ENV-SU), recombinant from E. coli (MSRV (Multiple Sclerosis associated …))
T1 chain: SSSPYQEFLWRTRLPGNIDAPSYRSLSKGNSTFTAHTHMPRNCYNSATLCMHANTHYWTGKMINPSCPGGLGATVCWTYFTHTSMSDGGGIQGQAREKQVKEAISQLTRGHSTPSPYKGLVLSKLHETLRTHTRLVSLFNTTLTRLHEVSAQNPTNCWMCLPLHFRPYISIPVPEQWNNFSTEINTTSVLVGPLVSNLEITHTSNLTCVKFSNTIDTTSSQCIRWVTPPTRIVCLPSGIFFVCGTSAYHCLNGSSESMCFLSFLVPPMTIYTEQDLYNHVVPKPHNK

T2: MSRV complete ENV protein (ENV-T), recombinant from E. coli (MSRV (Multiple Sclerosis associated …))
T2 construct: also called ENV-T 7A; His-ENV-T
T2 chain: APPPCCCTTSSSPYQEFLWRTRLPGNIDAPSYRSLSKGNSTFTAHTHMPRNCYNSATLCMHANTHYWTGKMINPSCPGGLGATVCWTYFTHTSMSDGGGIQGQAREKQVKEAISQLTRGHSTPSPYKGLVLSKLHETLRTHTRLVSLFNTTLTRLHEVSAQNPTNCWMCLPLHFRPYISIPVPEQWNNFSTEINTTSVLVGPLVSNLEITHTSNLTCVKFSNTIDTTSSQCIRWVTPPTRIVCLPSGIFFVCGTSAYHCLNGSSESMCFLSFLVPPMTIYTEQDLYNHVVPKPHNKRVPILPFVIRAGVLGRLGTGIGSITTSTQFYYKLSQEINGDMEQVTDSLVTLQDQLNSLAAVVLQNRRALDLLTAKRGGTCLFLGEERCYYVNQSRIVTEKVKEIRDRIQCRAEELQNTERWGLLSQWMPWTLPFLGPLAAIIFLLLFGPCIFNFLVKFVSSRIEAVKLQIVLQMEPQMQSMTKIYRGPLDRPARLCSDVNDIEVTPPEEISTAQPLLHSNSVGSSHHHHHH

B1: GNbAC1 murine monoclonal antibody (IgG1/kappa) (antibody, V domains shown)
VH: QVQLQQSGAELVRPGAPVTLSCKASGYTFTDYEMHWVKQTPVHGLEWIGAVAPETGGTAYNQKFKGKATLTAAKSSSTAYMELRSLTSEDSAVYYCTSTVVPFAYWGQGTLVTVSA
VL: QIVLTQSPAIMSASPGEKVTISCSASSSVSYMYWYQQKPGSSPKAWIYRTSNLASGVPGRFSGSGSGTSYSLTISSMEAEDAATYYCQQYQSLPLTFGSGTKLEIK
notes: Murine IgG1/kappa from hybridoma; also called murine IgG1; muIgG
B2: Chimeric GNb AC1 IgG1 (human IgG1 constant regions with murine VH and VL) (antibody, V domains shown)
VH: B1 VH
VL: B1 VL
notes: Human IgG1 heavy constant region and human kappa constant region, made in CHO cells; also called GNbAC1 chimeric IgG1; Ligand in human IgG1
B3: Chimeric GNb AC1 IgG4 (human IgG4 constant regions with murine VH and VL) (antibody, V domains shown)
VH: B1 VH with P17S
VL: QIVLTQSPAIMSASPGEKVTISCSASSSVSYMYWYQQKPGSSPKAWIYRTSNLASGVPGRFSGSGSGTSYSLTISSMEAEDAATYYCQQYQSLPLTFGSGTKLEIKR
notes: also called GNbAC1 chimeric IgG4; GNbAC1-IgC4

Where a chain is given by its changes, count along the chain named.

One assay concerns the target T1, MSRV ENV surface domain fragment …. Briefly: cell-based or functional assay.
As to B1, the “IFN-gamma Inhibition (%)” value was determined as 52%; the “IFN-gamma Response (%)” value was 48%; the “IFN-gamma pg/ml, PBMC 72 h” value amounted to 270 pg/mL; the “IL-6 pg/ml, PBMC 72 h” value turned out to be 42200 pg/mL. In addition, the “IL-6 Inhibition (%)” value was found to be 52% and the “IL-6 Response (%)” value came out at 48%.
With B2, the “IFN-gamma Inhibition (%)” value is -9%; the “IFN-gamma Response (%)” value came out at 109%; the “IFN-gamma pg/ml, PBMC 72 h” value stood at 606 pg/mL; the “IL-6 pg/ml, PBMC 72 h” value came out at 32900 pg/mL. For the same molecule, the “IL-6 Inhibition (%)” value was found to be 63% and the “IL-6 Response (%)” value turned out to be 37%.
Take B3: the “IFN-gamma Inhibition (%)” value is 43%; the “IFN-gamma Response (%)” value worked out at 57%; the “IFN-gamma pg/ml, PBMC 72 h” value was found to be 318 pg/mL; the “IL-6 pg/ml, PBMC 72 h” value amounted to 53000 pg/mL. The “IL-6 Inhibition (%)” value amounted to 40% and the “IL-6 Response (%)” value was 60%.

A further assay has as its target T2, MSRV complete ENV protein (ENV-T), …. In words: ELISA; ENV 0.5 ug/ml coated; mAb 1 ug/ml. The method, then: (§1) Protocol: Incubation 2 h at 37° C. […] Revelation is made by adding OPD substrate and reading optic density with a spectrophotometer after 30 min (Washing steps with PBS are performed between every step).
Turning to B1, the optic density is 1.87 OD.
The same measure, in the same setting: the value for B2 was 2.53 OD; that for B3 was 2.26 OD.

A further assay has the same target. Briefly: ELISA; ENV 0.25 ug/ml coated; mAb 1 ug/ml. The method, then: as §1
In the case of B1, the optic density is 1.42 OD.
With B2, the optic density came out at 2.27 OD.
Still for that read-out and setting: the value for B3 was 2.3 OD.

The target is the same in the next assay. In words: ELISA; ENV 0.125 ug/ml coated; mAb 1 ug/ml. The method, then: as §1
On to B1, for which the optic density amounted to 0.975 OD.
As to B2, the optic density was found to be 1.82 OD.
The same measure, in the same setting: in the case of B3 it was 1.56 OD.

For the next assay the target is unchanged. In words: ELISA; ENV 0.0156 ug/ml coated; mAb 1 ug/ml. The method, then: as §1
(In general: In an ELISA, binding on a coated surface is turned into a signal by an enzyme label.)
In the case of B1, the optic density turned out to be 0.186 OD.
The same measure, in the same setting: in the case of B2 it was 0.888 OD; in that of B3, 0.71 OD.

For the next assay the target is unchanged. Briefly: ELISA; ENV 0.0625 ug/ml coated; mAb 1 ug/ml. The method, then: as §1
As to B1, the optic density came out at 0.837 OD.
As to B2, the optic density turned out to be 1.85 OD.
Still for that read-out and setting: the value for B3 was 1.55 OD.

Another assay has the same target. In words: ELISA; coated ENV-T 7A 0.125; ligand 1 microgram. The method, then:
(§2) II-1d Direct ELISA on Microplates Coated with ENV Antigen (ENV-T or ENV-SU as Described Above) [0159] Microwells were coated with 100 μl per well of ENV antigen diluted in 50 mM Sodium Bicarbonate, pH 9.6. Plate were sealed and incubated 2 hours at 37° C. under light agitation. [0160] Microwells were washed 4 times with 250 μl per well of PBS (Phosphate Buffer Saline). After the last, plates were inverted and blotted on absorbent paper to remove any residual buffer. [0161] 100 μl per well of detection antibody according to the present invention (GNbAC1 or its Fab fragment) diluted in PBS+BSA 1% (PBS with 1% of Bovine Serum Albumin) were added. Plate were sealed and incubated 1 hour at room temperature under light agitation. […] Microwells were washed 4 times with 250 μl per well of PBS. After the last, plates were inverted and blotted on absorbent paper to remove any residual buffer. [0163] […] Plate were sealed and incubated 1 hour at room temperature under light agitation. [0164] Microwells were washed 6 times with 250 μl per well of PBS. After the last, plates were inverted and blotted on absorbent paper to remove any residual buffer. [0165] 100 μl par well of Substrate Solution (1 tablet of o-Phenylenediamine (OPD) diluted in 10 ml of 0.05M Phosphate Citrate Buffer pH5+10 μl H2O2 30%, prepared at the last moment) were added. Plates were incubated 30 min at room temperature in the dark. […] 50 μl per well of Stop Solution 2N H2SO₄ were added. [0167] The absorbance was read at 490 nm within 30 minutes of stopping reaction.
(§3) Env-T antigen is coated onto microtiter ELISA plate wells with serial dilutions ranging from 1 μg/ml to about 0.01 μg/ml.
For B1, the optical density is 2.29 OD.
On the same count and under the same terms, in the case of B2 it was 2.39 OD; in that of B3, 1.99 OD.

The target is the same in another assay. In words: ELISA; ENV-T 7A 1 ug/ml coated; mAb 0.0078 ug/ml. The method, then: as §1
Regarding B1, the optic density came to 0.13 OD.
For B2, the optic density was found to be 0.85 OD.
Turning to B3, the optic density turned out to be 0.474 OD.

The target is the same in the next assay. In words: ELISA; coated ENV-T 7A 0.0078; ligand 1 microgram. The method, then: as §2, §3
B1: the optical density amounted to 0.625 OD.
Still for that read-out and setting: in the case of B2 it was 0.815 OD; in that of B3, 0.692 OD.

A further assay has the same target. Briefly: ELISA; coated ENV-T 7A 0.0156; ligand 1 microgram. The method, then:
as §2, §3
B1: the optical density was 1.3 OD.
The same measure, in the same setting: the value for B2 was 1.26 OD; that for B3 was 1.02 OD.

For another assay the target is unchanged. In words: ELISA; ENV-T 7A 1 ug/ml coated; mAb 0.03125 ug/ml. The method, then:
as §1
On to B1, for which the optic density was 0.406 OD.
For B2, the optic density was 1.98 OD.
The same measure, in the same setting: the value for B3 was 1.26 OD.

Another assay shares this target. In words: ELISA; coated ENV-T 7A 0.03125; ligand 1 microgram. The method, then:
as §2, §3
As to B1, the optical density came out at 1.34 OD.
Still for that read-out and setting: in the case of B2 it was 1.56 OD; in that of B3, 1.37 OD.

The target is the same in another assay. Briefly: ELISA; coated ENV-T 7A, concentration cell blank (top of series, 1 µg/ml per paragraph 198); ligand 1 microgram. The method, then: as §2, §3
For the molecule B1, the optical density came out at 3 OD.
On the same count and under the same terms, the value for B2 was 3 OD.
Still for that read-out and setting: the value for B3 was 3 OD.
